The results in this text go back to publication PMC3248800.

In the assay the target is αβ T cell receptor A6 (human). Briefly: SPR. For orientation: In SPR one partner is held on a chip, and binding of the other changes the refractive index at the surface.

For the substance “Tel1p-HLA-A2 complex (S. cerevisiae Tel1p peptide … presented by wild-type HLA-A*0201) (from UniProt P61769 21-119) (peptide-MHC)”, the equilibrium dissociation constant (Kd) was 41 µM and the dH is -3 kcal/mol.

Substance “Tel1p-HLA-A2 (A150P) complex (from UniProt P61769 21-119) (peptide-MHC)” registered a Kd of 5 µM.

Broadly, the Kd is the concentration at which binding is half-saturated. The low end stands for tighter binding, the high end for weaker binding.
